Data taken from patent US20030078370.

Key:
[1] = tested on: GFP protein fused to full length human cyclin E2 [GFP: P42212]
[2] = tested on: GFP protein fused to human cyclin E2 splice variant [GFP: P42212]

Question: hemagluttinin-tagged human cdk2 was tested. Which “phosphorylation of histone H1 (kinase assay with 32P-ATP, autorad)” value [1] did it give?
Answer: can phosphorylate histone H1

Question: And the “phosphorylation of histone H1 (kinase assay with 32P-ATP, autorad)” value [2]?
Answer: cannot phosphorylate histone H1
